Reference: patent US20140017714

T1: full-length human recombinant IGFBP-4
T1 chain: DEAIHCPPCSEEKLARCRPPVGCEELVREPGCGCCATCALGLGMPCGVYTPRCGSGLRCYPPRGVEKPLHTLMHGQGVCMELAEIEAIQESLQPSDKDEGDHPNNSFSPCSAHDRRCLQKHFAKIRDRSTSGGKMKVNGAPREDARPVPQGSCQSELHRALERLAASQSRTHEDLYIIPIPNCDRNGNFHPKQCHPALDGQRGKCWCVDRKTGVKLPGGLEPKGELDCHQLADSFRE

B1: atherosclerotic form of PAPP-A (protein)
chain: EARGATEEPSPPSRALYFSGRGEQLRLRADLELPRDAFTLQVWLRAEGGQRSPAVITGLYDKCSYISRDRGWVVGIHTISDQDNKDPRYFFSLKTDRARQVTTINAHRSYLPGQWVYLAATYDGQFMKLYVNGAQVATSGEQVGGIFSPLTQKCKVLMLGGSALNHNYRGYIEHFSLWKVARTQREILSDMETHGAHTALPQLLLQENWDNVKHAWSPMKDGSSPKVEFSNAHGFLLDTSLEPPLCGQTLCDNTEVIASYNQLSSFRQPKVVRYRVVNLYEDDHKNPTVTREQVDFQHHQLAEAFKQYNISWELDVLEVSNSSLRRRLILANCDISKIGDENCDPECNHTLTGHDGGDCRHLRHPAFVKKQHNGVCDMDCNYERFNFDGGECCDPEITNVTQTCFDPDSPHRAYLDVNELKNILKLDGSTHLNIFFAKSSEEELAGVATWPWDKEALMHLGGIVLNPSFYGMPGHTHTMIHEIGHSLGLYHVFRGISEIQSCSDPCMETEPSFETGDLCNDTNPAPKHKSCGDPGPGNDTCGFHSFFNTPYNNFMSYADDDCTDSFTPNQVARMHCYLDLVYQGWQPSRKPAPVALAPQVLGHTTDSVTLEWFPPIDGHFFERELGSACHLCLEGRILVQYASNASSPMPCSPSGHWSPREAEGHPDVEQPCKSSVRTWSPNSAVNPHTVPPACPEPQGCYLELEFLYPLVPESLTIWVTFVSTDWDSSGAVNDIKLLAVSGKNISLGPQNVFCDVPLTIRLWDVGEEVYGIQIYTLDEHLEIDAAMLTSTADTPLCLQCKPLKYKVVRDPPLQMDVASILHLNRKFVDMDLNLGSVYQYWVITISGTEESEPSPAVTYIHGSGYCGDGIIQKDQGEQCDDMNKINGDGCSLFCRQEVSFNCIDEPSRCYFHDGDGVCEEFEQKTSIKDCGVYTPQGFLDQWASNASVSHQDQQCPGWVIIGQPAASQVCRTKVIDLSEGISQHAWYPCTISYPYSQLAQTTFWLRAYFSQPMVAAAVIVHLVTDGTYYGDQKQETISVQLLDTKDQSHDLGLHVLSCRNNPLIIPVVHDLSQPFYHSQAVRVSFSSPLVAISGVALRSFDNFDPVTLSSCQRGETYSPAEQSCVHFACEKTDCPELAVENASLNCSSSDRYHGAQCTVSCRTGYVLQIRRDDELIKSQTGPSVTVTCTEGKWNKQVACEPVDCSIPDHHQVYAASFSCPEGTTFGSQCSFQCRHPAQLKGNNSLLTCMEDGLWSFPEALCELMCLAPPPVPNADLQTARCRENKHKVGSFCKYKCKPGYHVPGSSRKSKKRAFKTQCTQDGSWQEGACVPVTCDPPPPKFHGLYQCTNGFQFNSECRIKCEDSDASQGLGSNVIHCRKDGTWNGSFHVCQEMQGQCSVPNELNSNLKLQCPDGYAIGSECATSCLDHNSESIILPMNVTVRDIPHWLNPTRVERVVCTAGLKWYPHPALIHCVKGCEPFMGDNYCDAINNRAFCNYDGGDCCTSTVKTKKVTPFPMSCDLQGDCACRDPQAQEHSRKDLRGYSHG
B2: human recombinant PAPP-A (protein)
chain: B1 chain

What was measured:
[1] = molecular target: T1, full-length human recombinant IGFBP-4
[2] = molecular target: full-length human recombinant IGFBP-5
full-length human recombinant IGFBP-5, sequence (chain, as listed by the source): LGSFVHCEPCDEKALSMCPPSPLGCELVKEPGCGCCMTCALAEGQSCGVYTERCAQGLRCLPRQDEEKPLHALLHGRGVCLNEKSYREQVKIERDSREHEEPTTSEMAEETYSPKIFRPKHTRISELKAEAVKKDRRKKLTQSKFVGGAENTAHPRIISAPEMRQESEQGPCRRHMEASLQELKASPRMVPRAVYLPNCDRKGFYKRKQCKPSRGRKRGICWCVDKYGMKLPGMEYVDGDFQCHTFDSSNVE

Protein | proteolytic cleavage of IGFBP-4, Western blotting [1] | proteolytic cleavage of IGFBP-5, SDS-PAGE with Coomassie staining [2]
B1 | atherosclerotic form of PAPP-A was shown to cleave IGFBP-4 with the same efficiency as recombinant PAPP-A | 
B2 | Western blotting detection of proteolytic fragments of IGFBP-4 demonstrating PAPP-A protease activity | PAPP-A-dependent cleavage of IGFBP-5 determined by sodium dodecyl sulphate polyacrylamide gel electrophoresis
